Data as given in PMC10979056 (Heliyon, 2024).

Key:
[1] = biological target: cynomolgus TIM-3-hFc (Macaca fascicularis, UniProt A0A2K5U3G7); test: BLI
[2] = biological target: human TIM-3-His (human, UniProt Q8TDQ0); test: ELISA

Row | Kd [1] [pM] | sensitivity (lowest detectable concentration of coated TIM-3-His) [2] [ng/mL] | Binder
1 | 17.9 | 10 | MsT229 (antibody, V domains shown) VH: EIQLVQSGPELVKPGASMKMSCKASGYSFTGYTMNWVKQSHGQNLEWIGLINPQTGGTSYNQNFRGKATLTVDKSSNTAYMELLSLTSEDSAVYYCARERGFDSPGFPYWGQGTLVTVSA VL: DIQMTQTTSSLSASLGDRVTISCRASQDISNYLNWYQQKPDGTVKLLIYYTSRLHSGVPSRFSGSGSGTDYSLTISNLEQEDIATYFCQQGNTLPLTFGAGTKLELK
2 | 914 | 1 | MsT286 (antibody, V domains shown) VH: QVQLQQSGPELVKPGASMKMSCKASGYSFTGYTMNWVKQSHGQNLEWIGLINPQTGGTSYNQNFRGKATLTVDKSSNTAYMELLSLTSEDSAVYYCARERGFDSPGFPYWGQGTLVTVSA VL: not shown
3 |  | 1 | MsT229-Bio (antibody, V domains shown) VH: EIQLVQSGPELVKPGASMKMSCKASGYSFTGYTMNWVKQSHGQNLEWIGLINPQTGGTSYNQNFRGKATLTVDKSSNTAYMELLSLTSEDSAVYYCARERGFDSPGFPYWGQGTLVTVSA VL: DIQMTQTTSSLSASLGDRVTISCRASQDISNYLNWYQQKPDGTVKLLIYYTSRLHSGVPSRFSGSGSGTDYSLTISNLEQEDIATYFCQQGNTLPLTFGAGTKLELK
4 |  | 1 | MsT001 (antibody, V domains shown) VH: EVQLQQSGAEVVMPGASVKMSCKTSGYTFTDYLIHWVKQRPGQGLVWIGAIDTSDSYASYNQKFKGKATLTLDESSRTAYMQLSSLTSEDSAVYFCTGEGLDYWGQGTSVTVSS VL: DIQMTQTPLSLPVSLGDQASISCRSSQSLVHSNGNTYLNWYLQKPGQSPKLLIYKVSYRFSGVPDRFSGSGSGTDFTLKISRVEAEDLGVYFCSQSTHVPPLTFGAGTKLELK
